This data set is described as follows: amyloid nucleation score (Sup35N fusion, yeast selection) (log enrichment); library NNK3; higher = more nucleation; inactive = no reads after selection. The essentials:
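On medium lacking adenine and uracil, psi-negative yeast expressing peptides of 20 random codons fused to Sup35N were grown 7 days at 30°C after a 24-hour induction with 100 μM copper sulfate. Illumina sequencing of input and output plasmid inserts gave the reads, and sequences under 100 input reads were excluded. The nucleation score is the DiMSum log enrichment of output over input reads, centred on the mode score of non-aggregating sequences.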

± gives the uncertainty stated by the source.

The substance PRMRFILGFVIIEKENDRVK displayed an amyloid nucleation score of -0.431 ± 0.62.

AMSTGSSTWWYRSSKAIRGS: the amyloid nucleation score entry is “inactive”.

Consider VRTFEAVLCVPIRLDWVRDR, for which the amyloid nucleation score entry is “inactive”.

RDPWFLSMVVDLFGYLNWVM yielded an amyloid nucleation score of 0.338 ± 0.18.

In the case of FGMLFIWRK, the amyloid nucleation score entry was “inactive”.

Take TNKLIKFLDFHVRRVAVVGE: the amyloid nucleation score entry was “inactive”.

Consider SNWEFYDRYTYRRLGLEQKV, for which the amyloid nucleation score entry is “inactive”.

Turning to WCCGY, the amyloid nucleation score amounted to 0.774 ± 0.27.

Take CDFTRESYTDNTAASIPMLM: the amyloid nucleation score entry was “inactive”.

With YSGCRVLLQWVEFSCRWIWY, the amyloid nucleation score result was “inactive”.

With WVVQE, the amyloid nucleation score was -0.553 ± 0.93.

As for QHYDDSNRFYNK, the amyloid nucleation score entry is “inactive”.

On to DKVIHVAGFKVIDCHSSRIR, for which the amyloid nucleation score result was “inactive”.

For ETYNRR, the amyloid nucleation score was -0.227 ± 0.69.

On to ECYVR, for which the amyloid nucleation score result is “inactive”.

Turning to AQYLLYINDPCTCVVATPCR, the amyloid nucleation score result was “inactive”.

Take YIPIYRFVMIS: the amyloid nucleation score result is “inactive”.

RLLFFLDRKDLDAGGVFSKG: the amyloid nucleation score entry is “inactive”.

On to NARHFIRYATFCCQYASRCG, for which the amyloid nucleation score stood at 0.928 ± 0.18.

On to SSDSYLVRESDKSSEWGTRN, for which the amyloid nucleation score entry is “inactive”.

Consider FWLYYNFQFLDDC, for which the amyloid nucleation score entry was “inactive”.

VDVQVINLAFETFECCAFIK showed an amyloid nucleation score of 0.82 ± 0.16.

For ICHFTLM, the amyloid nucleation score result was “inactive”.

On to MCFNYCGVWASYLNRSVSFI, for which the amyloid nucleation score result was “inactive”.

For AKFARYSTYLPLLSVHDIND, the amyloid nucleation score entry is “inactive”.

As to MTVPTCHNDASARLMLRLLG, the amyloid nucleation score entry was “inactive”.

Substance SAYWCIPIPNITIWFNFFLL had an amyloid nucleation score of 1.47 ± 0.11.

In the case of CSFGRS, the amyloid nucleation score entry was “inactive”.

For the substance FLQNFWA, the amyloid nucleation score entry is “inactive”.

For RVSSHISSCGYDFCLWVEA, the amyloid nucleation score entry is “inactive”.

Substance CVVDNRRCLFLYWSLVSFNW returned an amyloid nucleation score of 1.18 ± 0.13.

Consider LSAMLDTDAYRGLW, for which the amyloid nucleation score result was “inactive”.

For NPFLSCKNYGICSYVGTNVF, the amyloid nucleation score was 1.09 ± 0.096.

As for YPCYLLMGAVLSKPYLTSYV, the amyloid nucleation score result was “inactive”.

As for FINRVSPYMRSNRSLVGVSS, the amyloid nucleation score result was “inactive”.

For the substance FGDAYM, the amyloid nucleation score result is “inactive”.

Consider YRSSDQDVTVIMCLLANYYN, for which the amyloid nucleation score was found to be 2.37 ± 0.057.

Substance EVSIKAVDWRVSDVTVARTC registered an amyloid nucleation score of -0.228 ± 0.93.

As for VTVSSWASYIIVNGKWRIKC, the amyloid nucleation score result is “inactive”.

Turning to APRLFKQIIVTQTDGSLEGE, the amyloid nucleation score result was “inactive”.

For the substance HGSSCTRWAWALMNILDCVM, the amyloid nucleation score entry is “inactive”.

With RMFGNIDCFCIIIMKVSWSG, the amyloid nucleation score entry was “inactive”.

For the substance FHYLMMTFIV, the amyloid nucleation score result is “inactive”.

As to SLCTSEYFHSTYRNITGLVL, the amyloid nucleation score entry is “inactive”.

GCNLTYNVIGFGLYMKFRDE returned an amyloid nucleation score of 1.85 ± 0.069.

As for CRSEYYAF, the amyloid nucleation score entry is “inactive”.

Regarding DVFVHHDM, the amyloid nucleation score entry is “inactive”.

Take YMTCTR: the amyloid nucleation score result was “inactive”.

Take MGMVFHME: the amyloid nucleation score result is “inactive”.

With GERFAVTSVSDHVTDKKTLS, the amyloid nucleation score is 1.77 ± 0.093.

Regarding TQLHGDLYWLVRMRVWIVEI, the amyloid nucleation score entry is “inactive”.

On to ANRYNSITE, for which the amyloid nucleation score was -0.765 ± 1.5.

For LMFEL, the amyloid nucleation score result was “inactive”.

Turning to SIFLDEIDFKIT, the amyloid nucleation score is 0.409 ± 0.16.

CTECDNSFRPLKNRDTYTAR yielded an amyloid nucleation score of 0.046 ± 0.27.

NIAIVW: the amyloid nucleation score result was “inactive”.

Consider VKTESEVLLSRMSTYSWENA, for which the amyloid nucleation score was 1.23 ± 0.17.

TMYCLHLNIMSCWSNSTKKT displayed an amyloid nucleation score of 2.57 ± 0.083.

As to YKCYMFANYGIPVVVLFVVL, the amyloid nucleation score entry was “inactive”.

As for KAGVRKRKAER, the amyloid nucleation score entry was “inactive”.

As for WRIDDY, the amyloid nucleation score result was “inactive”.

Consider LCSNLSGDVYELVSHFPGGD, for which the amyloid nucleation score entry is “inactive”.

In the case of SAQFRFKSSV, the amyloid nucleation score came to 1.35 ± 0.089.

With VPGYAAMSPLLCYRGIPVQG, the amyloid nucleation score result was “inactive”.

Consider LRFNDYMC, for which the amyloid nucleation score result was “inactive”.

GCSLTWAVAEALTILVNAYT: the amyloid nucleation score entry was “inactive”.

As for NCRGPCFKSKCSLIPRYTFV, the amyloid nucleation score entry was “inactive”.

Take LLVPILCPFKV: the amyloid nucleation score entry is “inactive”.

ERNNKCDNTVLMKREELQG: the amyloid nucleation score result was “inactive”.

As for VFLSIMSSFEWALYLL, the amyloid nucleation score entry is “inactive”.

Consider NHLLSSSGSNGMLKLIRFIG, for which the amyloid nucleation score entry is “inactive”.

As for NKNGSHL, the amyloid nucleation score entry was “inactive”.

Take LYLPGKIY: the amyloid nucleation score entry is “inactive”.

For GYLFGVRVGCVYELAFDGCR, the amyloid nucleation score result was “inactive”.

As for SLISSALDIISDRYGLHVNN, the amyloid nucleation score result was “inactive”.

Take SFSFVQGSVPSTSFGSLKLA: the amyloid nucleation score entry was “inactive”.

For FGKGRHWISAPSRWVRGDFG, the amyloid nucleation score entry is “inactive”.

As to LQYWSFKSSSYGGLDIYCEA, the amyloid nucleation score entry was “inactive”.

For the substance FRSRRARGKNGIEMRILRHQ, the amyloid nucleation score was -0.109 ± 0.69.

Take MILCCNRRLFGRRSLANLCW: the amyloid nucleation score result is “inactive”.

Regarding PRVFGRVTSRMFLDFVLNF, the amyloid nucleation score came out at 0.982 ± 0.14.

For the substance NTCSLFSKISDNIQRSAHAR, the amyloid nucleation score result is “inactive”.

For the substance CYSFLWALRGMEF, the amyloid nucleation score result is “inactive”.

The substance DFDFQIYC gave an amyloid nucleation score of 0.507 ± 0.25.

With CWVVHGNNRVHGHMLGLRAI, the amyloid nucleation score entry was “inactive”.

Take SSLGNSLVMYVVCAWVN: the amyloid nucleation score came to 0.273 ± 0.37.

In the case of GRHKFRMVVIRAVRVSVLEN, the amyloid nucleation score result is “inactive”.

With SVMYVQNFPYLLSYWRSFIG, the amyloid nucleation score result is “inactive”.

On to SVAFSWGMWCDSLDYFGSVS, for which the amyloid nucleation score entry was “inactive”.

Turning to FFARMTALPLLQILYGSLRA, the amyloid nucleation score entry is “inactive”.

In the case of FCRHVKFYRMRAACVDNRRI, the amyloid nucleation score entry is “inactive”.

With TCHIRKWSEGWLKYMDCRSP, the amyloid nucleation score entry was “inactive”.

Take LDRCDHSIVCR: the amyloid nucleation score entry is “inactive”.

As to YGWFVDFGEYVTESNVGLY, the amyloid nucleation score result is “inactive”.

Consider YWVSSYCIPMCGYQVWCVWG, for which the amyloid nucleation score result is “inactive”.

In the case of DVITIEYVCF, the amyloid nucleation score entry was “inactive”.

In the case of PDLLTRILERPGVSECFMQW, the amyloid nucleation score result is “inactive”.

Regarding SWTQVKRYSRSTIAILAFHT, the amyloid nucleation score result is “inactive”.

For KRYAYAVVGGWVVGVRKHHG, the amyloid nucleation score entry was “inactive”.

VGFCNGIGVVMGRPAKCSWR had an amyloid nucleation score of -0.06 ± 1.1.

RFFNFPGNLKLSHVDLIAIW displayed an amyloid nucleation score of 0.214 ± 0.64.

As to GRGVDWMKQWNVHRKVLSSL, the amyloid nucleation score result was “inactive”.

As to RISRNGCGCGILYVIIRN, the amyloid nucleation score entry is “inactive”.

With SWDVGGLYCKINGPIMLSLD, the amyloid nucleation score result is “inactive”.

As to IISMPLGACMKAARMSF, the amyloid nucleation score entry is “inactive”.

In turn, KRFGFVNFNCYDLYIKFEIM registered an amyloid nucleation score of 1.28 ± 0.13.

For the substance TFHLRDCKSF, the amyloid nucleation score was found to be 0.133 ± 1.

As to VIVKKLY, the amyloid nucleation score result is “inactive”.

YSLFWCNNNVRGGKASMWYR: the amyloid nucleation score result is “inactive”.

For NCKMWRYKVESNCPGMICRC, the amyloid nucleation score entry is “inactive”.

In the case of SSCRETTLEFAMGGTTVHLQ, the amyloid nucleation score result was “inactive”.

YVCVPCPCELSIQCCVTITF returned an amyloid nucleation score of 2.01 ± 0.061.

For MSLPSSSQAYSCRWTWPRPA, the amyloid nucleation score entry is “inactive”.

For TRLLVWSETIAVWVRLQN, the amyloid nucleation score result was “inactive”.

As for NSDLIRVNRSVMYAKETCEV, the amyloid nucleation score entry is “inactive”.

Turning to KHRWVQLLWCWYFTGSQYRI, the amyloid nucleation score entry was “inactive”.

On to MVLGMYKQ, for which the amyloid nucleation score entry was “inactive”.

Consider CMYKTFHFDY, for which the amyloid nucleation score result was “inactive”.

For the substance FLYFTHARFHR, the amyloid nucleation score was found to be 1.79 ± 0.094.

With SLPLCWAMAKGSISHRMERY, the amyloid nucleation score result was “inactive”.

As for FPGRQIYYILVLAQAFASGF, the amyloid nucleation score entry is “inactive”.

Turning to IMKTYLLMLSFFRNPPMVVL, the amyloid nucleation score entry was “inactive”.

Consider SNITSCLNSQRKMDLAFYRV, for which the amyloid nucleation score entry was “inactive”.

QVYLVIV: the amyloid nucleation score result was “inactive”.

Take WGDDGNTFYE: the amyloid nucleation score result was “inactive”.

In the case of RAVNKFAVNTTKGGSHSWHS, the amyloid nucleation score result is “inactive”.

Substance TYVGVYALIF displayed an amyloid nucleation score of -1.12 ± 1.5.

With GFDLEVNTGNVVGFEDSAGQ, the amyloid nucleation score entry was “inactive”.

Take AHRRKLKWDNGHCNLRTKFR: the amyloid nucleation score result is “inactive”.

MEGDLSVADSYGDQ: the amyloid nucleation score result is “inactive”.

Regarding FVDLHCSYRCIYGCCHFRIR, the amyloid nucleation score entry is “inactive”.

The substance TNVLCRSTKNVFYTKGL gave an amyloid nucleation score of 0.368 ± 0.17.

These data come from the supplement of paper PMC12042874.
